Results on one molecule are retold here after patent publication US20150139990A1 (DAINIPPON SUMITOMO PHARMA, published 2015).

One test addresses T1, human CD81 mutant D137E (human, UniProt P60033 1-236, limits assumed).
T1 construct: as m30; not shown: C-terminal V5 and 6xHis tags
T1 sequence: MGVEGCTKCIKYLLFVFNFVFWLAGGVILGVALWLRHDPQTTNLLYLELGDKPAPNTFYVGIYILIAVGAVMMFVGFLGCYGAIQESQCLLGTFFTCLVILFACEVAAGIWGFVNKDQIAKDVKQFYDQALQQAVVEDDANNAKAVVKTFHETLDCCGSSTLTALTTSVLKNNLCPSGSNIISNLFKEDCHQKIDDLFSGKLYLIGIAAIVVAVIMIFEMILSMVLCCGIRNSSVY
The experiment in a line: ELISA. The gist of the method:
(§1)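 Relative binding affinity was taken as the percentage of binding to unmodified CD81, corrected for V5-tag expression. The altered CD81 proteins, tagged with V5 and 6×His, were expressed in CHO cells for 48 hours, and 1% n-octylglucoside membrane extracts were loaded onto Ni-NTA His Sorb plates at 5 μg/100 μL/well (3 hours, 4° C). After 1 hour of antibody binding at room temperature, detection used HRP anti-human IgG4 with TMB at 450 nm.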
Background: In an ELISA, binding on a coated surface is turned into a signal by an enzyme label.

In a further test the target is T2, human CD81 mutant A164V (human, UniProt P60033 1-236, limits assumed).
T2 construct: as m30; not shown: C-terminal V5 and 6xHis tags
T2 sequence: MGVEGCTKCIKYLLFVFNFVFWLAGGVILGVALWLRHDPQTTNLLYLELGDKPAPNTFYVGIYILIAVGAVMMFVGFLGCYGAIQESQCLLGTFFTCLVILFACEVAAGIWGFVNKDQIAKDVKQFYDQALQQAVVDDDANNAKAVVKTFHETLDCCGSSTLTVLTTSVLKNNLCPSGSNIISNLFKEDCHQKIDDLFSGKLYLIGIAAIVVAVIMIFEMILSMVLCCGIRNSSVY
In words: ELISA. The procedure, abridged: as §1

B1: 002-A07 IgG4 antibody (antibody)
heavy: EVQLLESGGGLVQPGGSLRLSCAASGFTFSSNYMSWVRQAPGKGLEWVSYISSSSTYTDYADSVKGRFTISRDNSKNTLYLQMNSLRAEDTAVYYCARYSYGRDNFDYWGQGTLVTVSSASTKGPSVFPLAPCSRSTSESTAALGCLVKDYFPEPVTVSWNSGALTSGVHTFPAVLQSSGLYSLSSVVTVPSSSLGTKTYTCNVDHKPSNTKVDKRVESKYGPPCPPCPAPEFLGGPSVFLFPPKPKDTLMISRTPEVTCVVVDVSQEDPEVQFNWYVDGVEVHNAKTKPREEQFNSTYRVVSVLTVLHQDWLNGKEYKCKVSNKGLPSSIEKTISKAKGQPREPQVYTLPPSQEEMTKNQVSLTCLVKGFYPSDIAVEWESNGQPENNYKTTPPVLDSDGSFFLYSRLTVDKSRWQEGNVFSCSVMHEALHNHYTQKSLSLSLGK
light: QSVLTQPPSASGTPGQRVTISCTGSTSNIGAGYDTHWYQQLPGTAPKLLIYGNSNRPSGVPDRFSGSKSGTSASLAISGLRSEDEADYYCQSYDTNLSVWVFGGGTKLTVLGQPKAAPSVTLFPPSSEELQANKATLVCLISDFYPGAVTVAWKADSSPVKAGVETTTPSKQSNNKYAASSYLSLTPEQWKSHRSYSCQVTHEGSTVEKTVAPTECS
notes: human IgG4 S228P, lambda light chain
For B1, the relative binding affinity in the test with human CD81 mutant D137E and in the test with human CD81 mutant A164V was below 20% throughout.
